The target of test [1] is T1, full length human LILRB2 stably expressed on HEK293 cells (human, UniProt Q8N423 22-597).
T1 construct: whole, on cells; also called HEK293_LILRB2
In words: competition flow cytometry, inhibition of HLA-G-His binding to HEK293 cells expressing LILRB2. How it is done: FIG. 33. […] All incubations were performed for 30 minutes at 4° C. Data shown is averaged geometric mean of fluorescence intensity ± standard error of the mean (s.e.m.) from duplicate samples acquired in a flow cytometer (BD FACS Celesta).

For test [2], the target named is T1, full length human LILRB2 stably …. In words: competition flow cytometry, inhibition of SEMA4A-hFc-AF647 binding to HEK293_LILRB2 cells. How it is done:
FIG. 34. […] Incubation was performed for 30 minutes at 4° C. Data shown is averaged geometric mean of fluorescence intensity ± standard error of the mean (s.e.m.) from duplicate samples acquired in a flow cytometer (BD FACS Celesta).
(A flow cytometer gives signals particle by particle.)

The target of test [3] is T2, LILRB2 chimeric receptor on LILRB2 reporter cells (extracellular domain of LILRB2 fused with … (UniProt Q8N423 22-460)).
T2 construct: extracellular domain;domain: transmembrane/intracellular domains; associates with DAP12; also called LILRB2-expressing reporter cells
Kind of test: flow cytometry, LILRB2 reporter cells. From the text: FIGS. 1A-C. Screening specific monoclonal antibodies for LILRB2. […] Binding of monoclonal antibodies was screened using flow cytometer on LILRB2 reporter cells. Bound antibodies were detected with Allophycocyanin (APC)-labeled goat anti-human IgG secondary antibody. (FIG. 1B) Quantification of binding ability of monoclonal antibodies to LILRB2 reporter cells.
Screening specific monoclonal antibodies for LILRB2. The inventors employed a stable reporter cell system to detect the binding ability of selected monoclonal antibodies to LILRB2. In this chimeric receptor reporter system, the extracellular domain (ECD) of LILRB2 is fused with transmembrane/intracellular domains of PILRb that associates with the adaptor protein DAP12 containing an immunoreceptor tyrosine-based activation motif. 27 monoclonal antibodies were screened. The LILRB2 reporter cells were incubated with selected monoclonal antibody, then labeled with (APC) goat anti-human IgG secondary antibody. […] The inventors generated LILRBAs and LILRBs reporters stably transduced with each receptor's extracellular domain (ECD).

Test [4] concerns the target T3, endogenous LILRB2 on human myeloid cells / primary monocytes (human, UniProt Q8N423 22-597).
T3 construct: whole, on cells; also called cells expressing endogenous LILRB2
Kind of test: flow cytometry, CD14+CD16- monocytes, AF647-conjugated antibody. How it is done:
FIG. 32. Binding of LILRB2 antibodies on CD14⁺CD16-monocytes isolated from human PBMC from healthy donors. Fifty thousand cells were incubated for 30 minutes at 4° C. with a dilution series (40-0.0006 μg/mL) of LILRB2 antibodies directly conjugated to AF647 in a final volume of 100 μL. Data shown is averaged geometric mean of fluorescence intensity from duplicate samples acquired in a flow cytometer (BD FACS Celesta) from one donor and is representative of 2 experiments with cells isolated from different donors.

Bounds are passed on as bounds.

B1: B2-17 (antibody, V domains shown)
VH: EVQLLDSGPRLLKPSETLSLTCGVSGVSTSSTHWWSWVRQTPGKGLEWIGEILHNGNTNSNPSLKSRVSMSIDKSRNQFSLQLKSMTAADTAVYYCASASPNWGASGAFDAWAQGTMVTVSS
VL: QSVLTQPPSASATPGQRVTISCSGSSSNIGSNPVNWYQQVPGMAPELVMYSDNQRPSGVPDRFSGSNSGTSASLAISGLQSEDEADYYCSTWDDSLNGLVFGTGTKVTVL
notes: also called B2-17_HC; B2-17_LC
Turning to B1, the values for the IC50 in test [1] and in test [2] were 0.209 µg/mL and 0.657 µg/mL, respectively. Besides, the “% of cells anti-hIgG APC+” value in test [3] came to 94.3%. This molecule also showed an EC50 in test [4] of over 10 µg/mL.

B2: B2-16 (antibody, V domains shown)
VH: QVQLVQSGAEVKKPGSSVKVSCKASGGTFSSYAISWVRQAPGQGLEWMGGIIPIFGTANYAQKFQGRVTITADESTSTAYMELSSLRSEDTAVYYCASGIIPDNPYGMDVWGQGTMVSVSS
VL: DIVMTQSPLSLPVTLGQPASISCTSSQSLVYSDGNTYLNWFHQRPGQSPRRLFYKVSNRASGVPDRFSGSGSGTDFTLKISRVEAEDLGVYYCMQGTHWPVTFGQGTRLEIK
notes: also called B2-16_HC; B2-16_LC
Turning to B2, the IC50 in test [1] worked out at 0.915 µg/mL; in test [2], 3.19 µg/mL. The “% of cells anti-hIgG APC+” value in test [3] stood at 95%. In test [4], this molecule displayed an EC50 of 0.547 µg/mL.

B3: B2-7 (antibody, V domains shown)
VH: EVQLVESGGGVVQPGRSLRLSCAASGFTISSYGMHWVRQAPGKGLEWVAVISYDGSNKYYADSVKGRFTISRDNSKNTLYLQMNSLRVEDTAVYYCAKDLLLRYFDWSPKYYYNGMDVWGQGTMVTVSS
VL: QSVLTQPPSVSVAPGKTARITCGGNNIGSKSVHWYQQKPGQAPVLVVYDDSDRPSGIPERFSGSNSGNTATLTISRVEAGDEADYYCQVWDSSSDHPGVFGTGTKVTVL
notes: also called B2-7_HC; B2-7_LC
Turning to B3, the IC50 in test [1] turned out to be 0.507 µg/mL; in test [2], 2.66 µg/mL. Also, in test [3], the “% of cells anti-hIgG APC+” value turned out to be 94.2%. The response in test [4] was half-maximal at 0.332 µg/mL (EC50).

B4: B2-15 (antibody, V domains shown)
VH: EVQLVQSGAEVKKSGASVKVSCKSSGYTFTNYGISWVRQAPGQGLEWMGWISGDAGDTKFAQKFQGRVTMTTDTSTTTTYMELRSLRSDDTAVYYCARDGEYIPMFRGFDNYYGLDVWGQGTLVSVSS
VL: QSVLTQPPSASATPGQRVTISCSGRNANIGSNPVNWYQQLPGTAPRLVMYSNNQRPSGVPDRFSGSKSGTSASLAISGLQSEDEADYYCEGWDDSLNGYVFGTGTKVTVL
notes: also called B-15; B2-15_HC
As to B4, the IC50 is 0.16 µg/mL in test [1] and 0.482 µg/mL in test [2]. Besides, the “% of cells anti-hIgG APC+” value in test [3] worked out at 94.3%. Also, the EC50 in test [4] worked out at 0.056 µg/mL.

B5: B2-19 (antibody, V domains shown)
VH: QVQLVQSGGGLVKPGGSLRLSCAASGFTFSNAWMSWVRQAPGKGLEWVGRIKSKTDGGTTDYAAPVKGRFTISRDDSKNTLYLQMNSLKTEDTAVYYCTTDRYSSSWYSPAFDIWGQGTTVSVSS
VL: QPVLTQPPSVSEAPRQRVTISCSGSSSNIGNNVVNWYQQLPGKAPKLLIYYDDLLPSGVSDRFSGSKSGTSASLAISGLQSEDEADYYCATWDDSLNGPVFGGGTKLTVL
notes: also called B2-19_HC; B2-19_LC
B5: the IC50 in test [1] was found to be 0.583 µg/mL; in test [2], 2.12 µg/mL. In test [3], the “% of cells anti-hIgG APC+” value amounted to 95.3%. The EC50 in test [4] turned out to be 0.219 µg/mL.

The IC50 is the concentration that inhibits the measured activity by half. The term EC50 denotes the concentration giving half of the maximal effect. A high value points to weaker potency.
